Laboratory results from article doi:10.1101/2021.01.07.425795 (bioRxiv, 2021).
Like-named read-outs stand apart in the source and are kept apart here.

How the values were obtained:
Test in all cases: SEC
[1] = biological target: the molecule itself
[2] = biological target: T1, ACAD9 (wild type, without a tag) (human, UniProt Q9H845 38-621)
T1 sequence (looked up): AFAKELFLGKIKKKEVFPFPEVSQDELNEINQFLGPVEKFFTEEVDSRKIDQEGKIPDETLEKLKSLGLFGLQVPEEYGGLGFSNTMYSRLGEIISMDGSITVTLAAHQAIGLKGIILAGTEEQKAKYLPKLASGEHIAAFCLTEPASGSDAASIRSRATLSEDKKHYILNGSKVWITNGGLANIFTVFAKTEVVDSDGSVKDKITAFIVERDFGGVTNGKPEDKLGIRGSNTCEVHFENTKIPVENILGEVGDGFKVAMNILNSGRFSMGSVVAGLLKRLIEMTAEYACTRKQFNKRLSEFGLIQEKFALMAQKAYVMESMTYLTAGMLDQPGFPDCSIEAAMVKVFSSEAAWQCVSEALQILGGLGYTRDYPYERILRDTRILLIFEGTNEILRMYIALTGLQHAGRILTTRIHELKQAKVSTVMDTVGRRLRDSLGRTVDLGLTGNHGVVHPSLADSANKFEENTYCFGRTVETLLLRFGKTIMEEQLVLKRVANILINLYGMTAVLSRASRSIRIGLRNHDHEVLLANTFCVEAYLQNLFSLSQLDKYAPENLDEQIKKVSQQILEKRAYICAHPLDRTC

[3] = biological target: T2, ACAD9 Arg469Trp (human, UniProt Q9H845 38-621, Arg469Trp)
T2 sequence (looked up): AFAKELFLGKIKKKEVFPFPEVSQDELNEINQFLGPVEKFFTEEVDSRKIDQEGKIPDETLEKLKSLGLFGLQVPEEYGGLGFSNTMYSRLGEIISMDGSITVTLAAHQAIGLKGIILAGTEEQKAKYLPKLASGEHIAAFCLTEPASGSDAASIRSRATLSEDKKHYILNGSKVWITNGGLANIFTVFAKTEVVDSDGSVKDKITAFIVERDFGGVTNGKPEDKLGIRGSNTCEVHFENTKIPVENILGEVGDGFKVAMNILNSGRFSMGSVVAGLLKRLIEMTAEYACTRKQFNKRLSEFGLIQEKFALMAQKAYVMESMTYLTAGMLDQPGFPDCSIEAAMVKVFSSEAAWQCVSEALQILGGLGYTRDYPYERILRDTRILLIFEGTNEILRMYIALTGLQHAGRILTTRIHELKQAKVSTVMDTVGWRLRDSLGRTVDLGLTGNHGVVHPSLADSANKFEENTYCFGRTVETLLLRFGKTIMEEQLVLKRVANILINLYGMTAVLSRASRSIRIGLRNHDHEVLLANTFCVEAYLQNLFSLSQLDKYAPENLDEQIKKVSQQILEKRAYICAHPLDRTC

[4] = biological target: T1, ACAD9 (wild type, without a tag); remark: listed apart in the source
[5] = biological target: T3, ACAD9 Arg518His (human, UniProt Q9H845 38-621, Arg518His)
T3 sequence (looked up): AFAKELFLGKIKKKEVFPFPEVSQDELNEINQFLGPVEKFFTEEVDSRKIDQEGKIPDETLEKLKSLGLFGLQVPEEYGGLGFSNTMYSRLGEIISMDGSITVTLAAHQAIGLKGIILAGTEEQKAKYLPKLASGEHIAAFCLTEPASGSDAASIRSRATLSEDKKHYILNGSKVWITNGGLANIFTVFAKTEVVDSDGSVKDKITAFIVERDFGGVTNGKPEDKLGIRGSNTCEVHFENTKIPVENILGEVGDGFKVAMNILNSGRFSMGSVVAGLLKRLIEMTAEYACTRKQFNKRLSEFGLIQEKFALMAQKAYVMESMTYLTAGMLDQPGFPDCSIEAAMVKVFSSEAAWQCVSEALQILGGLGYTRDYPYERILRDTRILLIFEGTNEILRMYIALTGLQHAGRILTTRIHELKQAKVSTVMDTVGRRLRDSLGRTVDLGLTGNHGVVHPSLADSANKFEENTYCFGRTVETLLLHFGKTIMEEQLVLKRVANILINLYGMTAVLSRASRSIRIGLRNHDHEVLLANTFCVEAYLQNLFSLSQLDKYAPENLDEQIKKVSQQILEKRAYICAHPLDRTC

[6] = biological target: T4, ACAD9 Glu426Gln (human, UniProt Q9H845 38-621, Glu426Gln)
T4 sequence (looked up): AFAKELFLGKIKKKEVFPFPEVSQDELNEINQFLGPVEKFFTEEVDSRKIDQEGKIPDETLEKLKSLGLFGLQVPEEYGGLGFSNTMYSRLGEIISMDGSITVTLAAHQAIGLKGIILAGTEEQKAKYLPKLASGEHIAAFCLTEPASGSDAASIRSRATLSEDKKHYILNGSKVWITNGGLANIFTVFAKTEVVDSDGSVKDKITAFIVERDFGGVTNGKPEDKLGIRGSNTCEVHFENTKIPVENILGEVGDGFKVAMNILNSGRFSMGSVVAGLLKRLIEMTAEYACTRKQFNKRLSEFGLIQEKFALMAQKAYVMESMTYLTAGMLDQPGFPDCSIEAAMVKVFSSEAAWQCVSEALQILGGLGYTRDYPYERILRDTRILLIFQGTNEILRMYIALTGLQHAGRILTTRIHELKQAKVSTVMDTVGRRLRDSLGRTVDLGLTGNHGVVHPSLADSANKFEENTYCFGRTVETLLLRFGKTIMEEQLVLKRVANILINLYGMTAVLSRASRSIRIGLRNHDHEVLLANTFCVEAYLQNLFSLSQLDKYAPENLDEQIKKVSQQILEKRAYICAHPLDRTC

B1: His6-ECSIT (natural protein, human, UniProt Q9BQ95 49-431, looked up)
chain: SSEQSLVPSPPEPRQRPTKALVPFEDLFGQAPGGERDKASFLQTVQKFAEHSVRKRGHIDFIYLALRKMREYGVERDLAVYNQLLNIFPKEVFRPRNIIQRIFVHYPRQQECGIAVLEQMENHGVMPNKETEFLLIQIFGRKSYPMLKLVRLKLWFPRFMNVNPFPVPRDLPQDPVELAMFGLRHMEPDLSARVTIYQVPLPKDSTGAADPPQPHIVGIQSPDQQAALARHNPARPVFVEGPFSLWLRNKCVYYHILRADLLPPEEREVEETPEEWNLYYPMQLDLEYVRSGWDNYEFDINEVEEGPVFAMCMAGAHDQATMAKWIQGLQETNPTLAQIPVVFRLAGSTRELQTSSAGLEEPPLPEDHQEEDDNLQRQQQGQS
In the case of B1, the “stoichiometry N” value [1] is reported as 2, the “stoichiometry N” value [2] is reported as 1 ECSIT chains per ACAD9 chain (one dimer with one dimer) and the binding result [3] is reported as “binds”. The “stoichiometry N” value [4] was 1 mol/mol, the binding result [5] was “binds” and the binding result [6] was “binds”.
